B1: Transcription factor JunD (Homo sapiens), P17535 (parent)
chain: METPFYGDEALSGLGGGASGSGGSFASPGRLFPGAPPTAAAGSMMKKDALTLSLSEQVAAALKPAAAPPPTPLRADGAPSAAPPDGLLASPDLGLLKLASPELERLIIQSNGLVTTTPTSSQFLYPKVAASEEQEFAEGFVKALEDLHKQNQLGAGAAAAAAAAAAGGPSGTATGSAPPGELAPAAAAPEAPVYANLSSYAGGAGGAGGAATVAFAAEPVPFPPPPPPGALGPPRLAALKDEPQTVPDVPSFGESPPLSPIDMDTQERIKAERKRLRNRIAASKCRKRKLERISRLEEKVKTLKSQNTELASTASLLREQVAQLKQKVLSHVNSGCQLLPQHQVPAY

Variants of: B1
Details: with mk10_human MAPK10, P53779
Chain of mk10_human MAPK10, P53779 (P53779 whole entry): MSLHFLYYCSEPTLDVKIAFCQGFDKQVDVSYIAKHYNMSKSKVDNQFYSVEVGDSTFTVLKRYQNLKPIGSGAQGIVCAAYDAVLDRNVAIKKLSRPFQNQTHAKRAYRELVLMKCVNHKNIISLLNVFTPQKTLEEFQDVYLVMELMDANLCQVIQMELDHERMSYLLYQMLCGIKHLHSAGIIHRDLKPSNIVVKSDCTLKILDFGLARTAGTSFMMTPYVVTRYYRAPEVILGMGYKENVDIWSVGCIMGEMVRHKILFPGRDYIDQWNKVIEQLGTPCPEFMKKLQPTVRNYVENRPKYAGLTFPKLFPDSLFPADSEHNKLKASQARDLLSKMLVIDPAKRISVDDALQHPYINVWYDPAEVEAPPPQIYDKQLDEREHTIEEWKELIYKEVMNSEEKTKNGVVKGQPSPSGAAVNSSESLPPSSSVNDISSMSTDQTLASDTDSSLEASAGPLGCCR

Variant | effect of a mutation on the interaction
K46A;K47A | disrupting interaction strength
L52A;L54A | disrupting interaction strength

Source: IntAct's records for PubMed 22327296
